1 molecule from PMC10483886 (Molecular cell, 2023) can be followed below.

The assay has as its target T1, His-Flag-DBR1 (human, UniProt Q9UK59 1-544).
T1 sequence (looked up): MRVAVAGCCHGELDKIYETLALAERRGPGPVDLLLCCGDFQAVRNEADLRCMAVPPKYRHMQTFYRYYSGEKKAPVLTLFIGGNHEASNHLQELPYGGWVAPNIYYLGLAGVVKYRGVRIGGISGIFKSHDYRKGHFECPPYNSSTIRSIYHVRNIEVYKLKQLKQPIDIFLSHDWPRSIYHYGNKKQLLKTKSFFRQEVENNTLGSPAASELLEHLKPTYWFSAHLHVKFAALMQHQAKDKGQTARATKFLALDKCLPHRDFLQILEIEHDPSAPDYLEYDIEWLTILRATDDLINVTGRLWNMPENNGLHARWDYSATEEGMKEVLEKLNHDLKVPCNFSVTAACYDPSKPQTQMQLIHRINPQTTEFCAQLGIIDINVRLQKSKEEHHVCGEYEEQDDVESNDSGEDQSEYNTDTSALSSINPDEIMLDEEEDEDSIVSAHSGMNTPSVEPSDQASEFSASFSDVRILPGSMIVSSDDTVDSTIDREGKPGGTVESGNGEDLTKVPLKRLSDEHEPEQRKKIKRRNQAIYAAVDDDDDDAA
The assay is described as follows: pull-down.

B1: GST-TTDN1 (natural protein, human, UniProt Q8TAP9 1-179, looked up)
chain: MQRQNFRPPTPPYPGPGGGGWGSGSSFRGTPGGGGPRPPSPRDGYGSPHHTPPYGPRSRPYGSSHSPRHGGSFPGGRFGSPSPGGYPGSYSRSPAGSQQQFGYSPGQQQTHPQGSPRTSTPFGSGRVREKRMSNELENYFKPSMLEDPWAGLEPVSVVDISQQYSNTQTFTGKKGRYFC
For the molecule B1, the binding result was “binds”.
